Test results reported in the supplement of paper PMC9112550, “Optimization of the antimicrobial peptide Bac7 by deep mutational scanning” (BMC Biology, 2022).

Test system: Escherichia coli TOP10
Assay: shrunken log2 fold change of peptide-encoding DNA abundance (4.5 h post-induction vs induction); higher = less antimicrobial activity (less host growth inhibition)
Settings: time post-induction: 4.5 h; library: site-saturation at positions 5, 18, 19, 20
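Also: peptides expressed intracellularly from a pBAD plasmid library in pooled LB shake-flask culture, induced with 0.3% L-arabinose, DNA abundance read by NGS, three biological replicates, DESeq2 with apeglm shrinkage.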

Sequence	shrunken log2 fold change
RRIRLRPPRLPRPRPRPGRRPRP	0.363
RRIRTRPPRLPRPRPRPFRPPRP	0.0775
RRIRVRPPRLPRPRPRPRQPPRP	0.284
RRIRIRPPRLPRPRPRPAQEPRP	-0.0756
RRIRARPPRLPRPRPRPPWGPRP	0.48
RRIRIRPPRLPRPRPRPMCVPRP	-0.209
RRIRQRPPRLPRPRPRPDSVPRP	-0.0518
RRIRLRPPRLPRPRPRPGYSPRP	-0.314
RRIRTRPPRLPRPRPRPQKAPRP	0.00748
RRIRWRPPRLPRPRPRPWTPPRP	0.0119
RRIRHRPPRLPRPRPRPTQSPRP	0.113
RRIRQRPPRLPRPRPRPRYNPRP	-0.527
RRIRYRPPRLPRPRPRPPYGPRP	-0.54
RRIRFRPPRLPRPRPRPSKKPRP	0.0524
RRIRWRPPRLPRPRPRPMNLPRP	-0.063
RRIRIRPPRLPRPRPRPDATPRP	0.0122
RRIRYRPPRLPRPRPRPSRDPRP	0.0382
RRIRQRPPRLPRPRPRPGMPPRP	-0.0642
RRIRKRPPRLPRPRPRPNIAPRP	0.262
RRIRHRPPRLPRPRPRPMFSPRP	-0.256
RRIRYRPPRLPRPRPRPPGCPRP	0.334
RRIRLRPPRLPRPRPRPYANPRP	-0.165
RRIRGRPPRLPRPRPRPANVPRP	-0.126
RRIRQRPPRLPRPRPRPERKPRP	0.0453
RRIRSRPPRLPRPRPRPFFWPRP	0.485

Sequence	shrunken log2 fold change
RRIRPRPPRLPRPRPRPKWRPRP	0.0676
RRIRKRPPRLPRPRPRPANDPRP	0.0931
RRIRCRPPRLPRPRPRPQCGPRP	-0.609
RRIRPRPPRLPRPRPRPRCSPRP	0.00477
RRIRMRPPRLPRPRPRPLMCPRP	-0.249
RRIRMRPPRLPRPRPRPNDQPRP	0.0566
RRIRSRPPRLPRPRPRPSYPPRP	-0.736
RRIRARPPRLPRPRPRPVICPRP	0.408
RRIRWRPPRLPRPRPRPPKNPRP	0.757
RRIRRRPPRLPRPRPRPHHGPRP	-0.249
RRIRVRPPRLPRPRPRPFDKPRP	-0.0577
RRIRKRPPRLPRPRPRPIEHPRP	0.332
RRIRPRPPRLPRPRPRPMQHPRP	-0.0486
RRIRNRPPRLPRPRPRPIYIPRP	0.0152
RRIRMRPPRLPRPRPRPIFDPRP	0.00763
RRIRFRPPRLPRPRPRPTFFPRP	-0.169
RRIRVRPPRLPRPRPRPEAFPRP	0.143
RRIRMRPPRLPRPRPRPNHFPRP	-0.436
RRIRPRPPRLPRPRPRPKTVPRP	-0.171
RRIRDRPPRLPRPRPRPDAAPRP	1.67
RRIRYRPPRLPRPRPRPQWSPRP	-0.0453
RRIRQRPPRLPRPRPRPMNRPRP	-0.275
RRIRFRPPRLPRPRPRPWDKPRP	-1.33
RRIRNRPPRLPRPRPRPQSHPRP	-0.68
RRIRCRPPRLPRPRPRPMHDPRP	0.0244

Sequence	shrunken log2 fold change
RRIRGRPPRLPRPRPRPRPCPRP	0.676
RRIRTRPPRLPRPRPRPVHTPRP	0.243
RRIRNRPPRLPRPRPRPYHQPRP	-0.308
RRIRVRPPRLPRPRPRPEAYPRP	-0.0262
RRIRWRPPRLPRPRPRPGGVPRP	0.427
RRIRGRPPRLPRPRPRPVHDPRP	-0.0619
RRIRSRPPRLPRPRPRPYMMPRP	-0.36
RRIRCRPPRLPRPRPRPYWIPRP	-1.17
RRIRTRPPRLPRPRPRPDQHPRP	-0.626
RRIRIRPPRLPRPRPRPEYHPRP	-0.152
RRIRCRPPRLPRPRPRPIEIPRP	-0.223
RRIRHRPPRLPRPRPRPRAQPRP	0.0972
RRIRWRPPRLPRPRPRPMCNPRP	-0.181
RRIRLRPPRLPRPRPRPTVVPRP	-0.0551
RRIRMRPPRLPRPRPRPQDYPRP	-0.0945
RRIRYRPPRLPRPRPRPIDTPRP	-0.0431
RRIRSRPPRLPRPRPRPFTLPRP	-0.163
RRIRGRPPRLPRPRPRPAAAPRP	2.36
RRIRQRPPRLPRPRPRPGYSPRP	-0.00603
RRIRSRPPRLPRPRPRPKNEPRP	-0.011
RRIRIRPPRLPRPRPRPNAYPRP	-0.243
RRIRRRPPRLPRPRPRPMNVPRP	-0.156
RRIRVRPPRLPRPRPRPQCEPRP	-0.0122
RRIRIRPPRLPRPRPRPNNPPRP	-0.471
RRIRCRPPRLPRPRPRPVWAPRP	0.351

Sequence	shrunken log2 fold change
RRIRKRPPRLPRPRPRPNLFPRP	0.00721
RRIRVRPPRLPRPRPRPLDTPRP	-0.257
RRIRQRPPRLPRPRPRPDMRPRP	0.0308
RRIRCRPPRLPRPRPRPECAPRP	0.543
RRIRSRPPRLPRPRPRPDYGPRP	-0.0953
RRIRFRPPRLPRPRPRPYDQPRP	-0.0152
RRIRQRPPRLPRPRPRPHYTPRP	-0.509
RRIRGRPPRLPRPRPRPYTFPRP	0.151
RRIRIRPPRLPRPRPRPKVDPRP	-0.468
RRIRNRPPRLPRPRPRPEITPRP	-0.0284
RRIRIRPPRLPRPRPRPEVEPRP	-0.0136
RRIRSRPPRLPRPRPRPAAAPRP	0.868
RRIRPRPPRLPRPRPRPFGKPRP	-0.164
RRIRLRPPRLPRPRPRPEAFPRP	0.0443
RRIRHRPPRLPRPRPRPPQFPRP	0.0105
RRIRLRPPRLPRPRPRPDTLPRP	-0.15
RRIRDRPPRLPRPRPRPLKYPRP	-0.529
RRIRARPPRLPRPRPRPRWCPRP	0.0438
RRIRTRPPRLPRPRPRPCFQPRP	-0.232
RRIRSRPPRLPRPRPRPVTTPRP	-0.163
RRIRNRPPRLPRPRPRPALIPRP	0.0102
RRIRMRPPRLPRPRPRPMRGPRP	1.53
RRIRTRPPRLPRPRPRPLIIPRP	-0.784
RRIRLRPPRLPRPRPRPWVTPRP	-0.145
RRIRVRPPRLPRPRPRPCWCPRP	0.0389

Sequence	shrunken log2 fold change
RRIRSRPPRLPRPRPRPDASPRP	0.495
RRIRMRPPRLPRPRPRPDGPPRP	0.0285
RRIRCRPPRLPRPRPRPFLDPRP	-0.0521
RRIRCRPPRLPRPRPRPPFRPRP	0.377
RRIRCRPPRLPRPRPRPQIVPRP	-0.345
RRIRGRPPRLPRPRPRPKWDPRP	0.771
RRIRNRPPRLPRPRPRPITCPRP	-0.166
RRIRQRPPRLPRPRPRPFRPPRP	-0.303
RRIRTRPPRLPRPRPRPVKYPRP	0.0856
RRIRDRPPRLPRPRPRPAQKPRP	0.0225
RRIRPRPPRLPRPRPRPWQDPRP	0.115
RRIRLRPPRLPRPRPRPFCSPRP	1.91
RRIRFRPPRLPRPRPRPHADPRP	0.0798
RRIRFRPPRLPRPRPRPQQIPRP	-0.54
RRIRMRPPRLPRPRPRPNTQPRP	0.0014
RRIRCRPPRLPRPRPRPETFPRP	0.07
RRIRARPPRLPRPRPRPEWGPRP	1.06
RRIRWRPPRLPRPRPRPVIDPRP	0.373
RRIRHRPPRLPRPRPRPKCGPRP	0.0031
RRIRMRPPRLPRPRPRPHNNPRP	-0.153
RRIRMRPPRLPRPRPRPDQQPRP	-0.0225
RRIRDRPPRLPRPRPRPYAKPRP	0.019
RRIRLRPPRLPRPRPRPDIKPRP	-0.145
RRIRVRPPRLPRPRPRPLTWPRP	-0.195
RRIRKRPPRLPRPRPRPPRNPRP	0.671

Sequence	shrunken log2 fold change
RRIRWRPPRLPRPRPRPCQRPRP	1.03
RRIRMRPPRLPRPRPRPNEWPRP	0.23
RRIRCRPPRLPRPRPRPVLQPRP	1.24
RRIRTRPPRLPRPRPRPYPFPRP	-0.0603
RRIRKRPPRLPRPRPRPYRIPRP	-0.0846
RRIRLRPPRLPRPRPRPTITPRP	-0.0781
RRIRARPPRLPRPRPRPKEHPRP	0.217
RRIRKRPPRLPRPRPRPQGMPRP	-0.027
RRIRERPPRLPRPRPRPRQRPRP	0.32
RRIRRRPPRLPRPRPRPKAMPRP	0.431
RRIRPRPPRLPRPRPRPLIDPRP	-0.0112
RRIRQRPPRLPRPRPRPQAHPRP	-0.23
RRIRRRPPRLPRPRPRPGGLPRP	0.289
RRIRARPPRLPRPRPRPIKAPRP	0.105
RRIRIRPPRLPRPRPRPIQVPRP	-0.071
RRIRWRPPRLPRPRPRPAGSPRP	-0.176
RRIRLRPPRLPRPRPRPLNVPRP	0.0831
RRIRQRPPRLPRPRPRPLPLPRP	-0.287
RRIRKRPPRLPRPRPRPCCYPRP	0.0681
RRIRLRPPRLPRPRPRPMKIPRP	-0.028
RRIRARPPRLPRPRPRPAHFPRP	0.25
RRIRLRPPRLPRPRPRPPVKPRP	-0.0732
RRIRFRPPRLPRPRPRPATCPRP	0.00724
RRIRIRPPRLPRPRPRPYEMPRP	-0.00062
RRIRNRPPRLPRPRPRPINEPRP	-0.056
